Test results taken from article PMC9701222, “Molecular basis for DNA recognition by the maternal pioneer transcription factor FoxH1”.

Assays:
[1] = target: T1, FoxH1 FH domain (species not stated) (UniProt O75593); test: BLI; conditions: BLI: 20 mM Tris pH 7.6, 100 mM NaCl, 2 mM DTT, 0.02% Tween-20, 0.01% BSA, 25 C; EMSA: 100 mM Tris, 10% glycerol, 7.5 nM Cy5-DNA, 4 C
T1 sequence: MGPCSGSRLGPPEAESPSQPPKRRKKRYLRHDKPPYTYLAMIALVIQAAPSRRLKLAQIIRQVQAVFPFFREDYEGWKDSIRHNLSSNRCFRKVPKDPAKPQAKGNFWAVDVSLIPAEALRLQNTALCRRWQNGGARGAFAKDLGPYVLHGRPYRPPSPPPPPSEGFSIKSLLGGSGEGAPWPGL

hFoxA2 FH (Homo sapiens) = target: T2, hFoxA2 FH (Homo sapiens) (UniProt Q9Y261); test: BLI; conditions: BLI: 20 mM Tris pH 7.6, 100 mM NaCl, 2 mM DTT, 0.02% Tween-20, 0.01% BSA, 25 C; EMSA: 100 mM Tris, 10% glycerol, 7.5 nM Cy5-DNA, 4 C
T2 sequence: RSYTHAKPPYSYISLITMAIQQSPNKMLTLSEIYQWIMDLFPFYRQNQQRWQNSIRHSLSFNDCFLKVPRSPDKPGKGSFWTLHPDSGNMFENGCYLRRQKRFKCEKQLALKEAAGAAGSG

dFoxH1 FH [2] = target: T3, dFoxH1 FH (Danio rerio, UniProt Q9I9E1 86-210); test: X-ray; BLI: 20 mM Tris pH 7.6, 100 mM NaCl, 2 mM DTT, 0.02% Tween-20, 0.01% BSA, 25 C; EMSA: 100 mM Tris, 10% glycerol, 7.5 nM Cy5-DNA, 4 C; conditions: protein: recombinant; tags: His-SUMO removed (Ulp1); blunt
T3 sequence: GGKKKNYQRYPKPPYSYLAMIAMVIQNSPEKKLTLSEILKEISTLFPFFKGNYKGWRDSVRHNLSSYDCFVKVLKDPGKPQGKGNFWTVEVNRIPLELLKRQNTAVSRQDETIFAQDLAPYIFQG

hFoxA2 FH [3] = target: T4, hFoxA2 FH (Homo sapiens, UniProt Q9Y261 153-273); test: as above; conditions: protein: recombinant; tags: His-SUMO removed (Ulp1); blunt
T4 sequence: T2 sequence

dFoxH1 FH [4] = target: T3, dFoxH1 FH; test: X-ray; K+; BLI: 20 mM Tris pH 7.6, 100 mM NaCl, 2 mM DTT, 0.02% Tween-20, 0.01% BSA, 25 C; EMSA: 100 mM Tris, 10% glycerol, 7.5 nM Cy5-DNA, 4 C; conditions: protein: recombinant; tags: His-SUMO removed (Ulp1); blunt
hFoxA2 FH [5] = target: T4, hFoxA2 FH; test: EMSA; BLI: 20 mM Tris pH 7.6, 100 mM NaCl, 2 mM DTT, 0.02% Tween-20, 0.01% BSA, 25 C; EMSA: 100 mM Tris, 10% glycerol, 7.5 nM Cy5-DNA, 4 C; conditions: protein: recombinant; tags: His-SUMO removed (Ulp1); label: 5'-Cy5
hFoxA2 FH [6] = target: T4, hFoxA2 FH; test: BLI; BLI: 20 mM Tris pH 7.6, 100 mM NaCl, 2 mM DTT, 0.02% Tween-20, 0.01% BSA, 25 C; EMSA: 100 mM Tris, 10% glycerol, 7.5 nM Cy5-DNA, 4 C; conditions: protein: recombinant; tags: His-SUMO removed (Ulp1); label: 5'-biotin (BLI)

**Q.** Which Kd [1] does the source give for “ACAAGGCCTGAAAAGAGATTGTGGATTGCGAATTAATGAAATTAACCTAATCTTTTCCATTCGGCAGCCGGGCCGCGGGCCGGCCGAGCTGGGCGGGCGGCCTAATTGCCTTGGTTAATCTCATTAATTCCTTTGTGCCGCCGCAGTTAACAACTCCCTCCGCCCGA (double strand) [Gsc167 nucleosome]” here?
**A.** The Kd was 0.005 µM.

**Q.** What about the Kd (hFoxA2 FH (Homo sapiens)) of the same molecule?
**A.** The Kd was 0.03 µM.

**Q.** Which Kd [1] does the source give for “ACAAGGCCTGAAAAGAGATTGTGGATTGCGAATTAATGAAATTAACCTAATCTTTTCCATTCGGCAGCCGGGCCGCGGGCCGGCCGAGCTGGGCGGGCGGCCTAATTGCCTTGGTTAATCTCATTAATTCCTTTGTGCCGCCGCAGTTAACAACTCCCTCCGCCCGA (double strand) [Gsc167 linear DNA]” here?
**A.** The Kd was 0.013 µM.

B1: dGSC-TT-16a (dsDNA)
DNA 1: AGATTGTTTATTGAGA
DNA 2: TCTCAATAAACAATCT
**Q.** Does B1 bind (dFoxH1 FH [2])?
**A.** Result: binds

**Q.** Does B1 bind (hFoxA2 FH [3])?
**A.** Result: binds

B2: dGSC-GT-16a (dsDNA)
DNA 1: AGATTGTGTATTGAGA
DNA 2: TCTCAATACACAATCT
**Q.** Does B2 bind (dFoxH1 FH [4])?
**A.** Result: binds

B3: FKH-TTACT-GSCflank (dsDNA)
DNA 1: AGATTGTTTACTGAGA
DNA 2: TCTCAGTAAACAATCT
**Q.** Does B3 bind (dFoxH1 FH [2])?
**A.** Result: binds

**Q.** Does B3 bind (hFoxA2 FH [3])?
**A.** Result: binds

B4: dGSC-GG-16a (dsDNA)
DNA 1: AGATTGTGGATTGAGA
DNA 2: TCTCAATCCACAATCT
**Q.** Does B4 bind (dFoxH1 FH [4])?
**A.** Result: binds

B5: TT forkhead DNA, 16 bp (EMSA) (dsDNA)
DNA 1: AGATTGTTTACTGAGA
DNA 2: TCTCAGTAAACAATCT
**Q.** Does B5 bind (hFoxA2 FH [5])?
**A.** Result: binds

B6: Gsc167 linear DNA (dsDNA)
DNA 1: ACAAGGCCTGAAAAGAGATTGTGGATTGCGAATTAATGAAATTAACCTAATCTTTTCCATTCGGCAGCCGGGCCGCGGGCCGGCCGAGCTGGGCGGGCGGCCTAATTGCCTTGGTTAATCTCATTAATTCCTTTGTGCCGCCGCAGTTAACAACTCCCTCCGCCCGA
DNA 2: TCGGGCGGAGGGAGTTGTTAACTGCGGCGGCACAAAGGAATTAATGAGATTAACCAAGGCAATTAGGCCGCCCGCCCAGCTCGGCCGGCCCGCGGCCCGGCTGCCGAATGGAAAAGATTAGGTTAATTTCATTAATTCGCAATCCACAATCTCTTTTCAGGCCTTGT
**Q.** How did the Kd (hFoxA2 FH [6]) turn out when B6 was run?
**A.** The Kd was 0.8 µM.
